Experimental findings from publication PMC8533110 are described below.

Common to all, as to assay: EMSA
Conditions in all cases: EMSA: 10 mM Tris-HCl pH 8.0, 60 mM NaCl, 10 mM KCl, 5 mM MgCl2, 1 mM DTT, 0.05% NP40, 10% glycerol, footprint: 5 mM Tris-HCl pH 8.0, 60 mM NaCl, 5 mM KCl
Background: A gel shift assay detects complexes by their altered migration in electrophoresis.

In series [1] the target is T1, HspR (Campylobacter jejuni NCTC 11168) (UniProt Q0P926).
T1 sequence: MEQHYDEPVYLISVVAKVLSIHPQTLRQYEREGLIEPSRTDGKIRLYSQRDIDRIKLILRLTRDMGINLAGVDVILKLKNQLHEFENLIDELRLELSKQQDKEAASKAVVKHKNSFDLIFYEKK

Series [2] addresses T2, HrcA (Campylobacter jejuni NCTC 11168) (UniProt Q9PPG2).
T2 sequence: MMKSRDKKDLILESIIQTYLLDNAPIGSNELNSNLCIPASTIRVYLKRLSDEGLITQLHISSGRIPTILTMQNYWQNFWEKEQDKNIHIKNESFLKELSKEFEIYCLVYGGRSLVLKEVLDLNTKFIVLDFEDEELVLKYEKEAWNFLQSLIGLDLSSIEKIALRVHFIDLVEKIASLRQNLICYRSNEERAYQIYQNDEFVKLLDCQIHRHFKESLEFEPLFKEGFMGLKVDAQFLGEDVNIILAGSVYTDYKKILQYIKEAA

In series [3] the target is T3, HrcA;HspR (Campylobacter jejuni NCTC 11168;Campylobacter jejuni NCTC 11168) (UniProt Q9PPG2+Q0P926).
T3 sequence 1: T2 sequence
T3 sequence 2: T1 sequence

Regarding “GGATCCCTTGCAGCAAATAAAGCACTTGCTAAACTTAATGATAAAAAAATCTTTTTCATTTCATTTCCTTTTGTTCTTAAAGATAAATTATCTCGTAAAATATTTTACTGTCTTCATAGTATAAAACCGAAAATTTACAAAATTGTAAATAAAACCTTGAGTGATAAAAATTTATAAAACTTGATTGACTTAGGCTAAAGTTTATGTTATAATTTAATCCTCTATATAATCAAGTAAAAATTTTTAAGGAAATATAACATGAATAGTTTATACGAAACTCTTGGAGTTAGCCTCGAG (double strand) [Pcbp promoter probe (EMSA)]”, the binding result in series [1] is “binds”.

For the sequence “GGATCCGCACAACAACAAAAGCTACAATGCCATAAAAAATCTTTTTCATTTTTATCCTTTAGTTTATTTTATAAAATAACTTTAGTCTATAAAACTAAACTTTTATAAATATTTTAATTTAAAGTATTGACAAAATTCATTTTTTATAGTATGATATTATCACTCTAAATTAAAGAGTGCTAAAATCAATATTTTTAAGGATGGACAAAAATGAATTTTCAACCTTTAGGAAAGCGTGTTCTAGTTAAACGCGCTCGAG (double strand) [Pgro promoter probe (EMSA)]”, the binding entry in series [1], in series [2] and in series [3] was “binds” in each case.
